Results on six proteins are retold here after patent US20060251655A1.

The data set addresses von Willebrand factor (vWF), prepared from plasma cryo fraction, P04275.

B1: recombinant ADAMTS-13 (von Willebrand factor specific cleaving enzyme), expressed in human embryo kidney cell line 293 (protein)
chain: AAGGILHLELLVAVGPDVFQAHQEDTERYVLTNLNIGAELLRDPSLGAQFRVHLVKMVILTEPEGAPNITANLTSSLLSVCGWSQTINPEDDTDPGHADLVLYITRFDLELPDGNRQVRGVTQLGGACSPTWSCLITEDTGFDLGVTIAHEIGHSFGLEHDGAPGSGCGPSGHVMASDGAAPRAGLAWSPCSRRQLLSLLSAGRARCVWDPPRPQPGSAGHPPDAQPGLYYSANEQCRVAFGPKAVACTFAREHLDMCQALSCHTDPLDQSSCSRLLVPLLDGTECGVEKWCSKGRCRSLVELTPIAAVHGRWSSWGPRSPCSRSCGGGVVTRRRQCNNPRPAFGGRACVGADLQAEMCNTQACEKTQLEFMSQQCARTDGQPLRSSPGGASFYHWGAAVPHSQGDALCRHMCRAIGESFIMKRGDSFLDGTRCMPSGPREDGTLSLCVSGSCRTFGCDGRMDSQQVWDRCQVCGGDNSTCSPRKGSFTAGRAREYVTFLTVTPNLTSVYIANHRPLFTHLAVRIGGRYVVAGKMSISPNTTYPSLLEDGRVEYRVALTEDRLPRLEEIRIWGPLQEDADIQVYRRYGEEYGNLTRPDITFTYFQPKPRQAWVWAAVRGPCSVSCGAGLRWVNYSCLDQARKELVETVQCQGSQQPPAWPEACVLEPCPPYWAVGDFGPCSASCGGGLRERPVRCVEAQGSLLKTLPPARCRAGAQQPAVALETCNPQPCPARWEVSEPSSCTSAGGAGLALENETCVPGADGLEAPVTEGPGSVDEKLPAPEPCVGMSCPPGWGHLDATSAGEKAPSPWGSIRTGAQAAHVWTPAAGSCSVSCGRGLMELRFLCMDSALRVPVQEELCGLASKPGSRREVCQAVPCPARWQYKLAACSVSCGRGVVRRILYCARAHGEDDGEEILLDTQCQGLPRPEPQEACSLEPCPPRWKVMSLGPCSASCGLGTARRSVACVQLDQGQDVEVDEAACAALVRPEASVPCLIADCTYRWHVGTWMECSVSCGDGIQRRRDTCLGPQAQAPVPADFCQHLPKPVTVRGCWAGPCVGQGTPSLVPHEEAAAPGRTTATPAGASLEWSQARGLLFSPAPQPRRLLPGPQENSVQSSACGRQHLEPTGTIDMRGPGQADCAVAIGRPLGEVVTLRVLESSLNCSAGDMLLLWGRLTWRKMCRKLLDMTFSSKTNTLVVRQRCGRPGGGVLLRYGSQLAPETFYRECDMQLFGPWGEIVSPSLSPATSNAGGCRLFINVAPHARIAIHALATNMGAGTEGANASYILIRDTHSLRTTAFHGQQVLYWESESSQAEMEFSEGFLKAQASLRGQYWTLQSWVPEMQDPQSWKGKEGT
As for B1, the vWF cleaving activity entry is listed as “It was also confirmed that the vWF cleaving activity exists in the obtained purified fraction”.

B2: W688stop (C-terminal deletion variant of ADAMTS-13, FLAG appended) (protein)
chain: PSHFQQSCLQALEPQAVSSYLSPGAPLKGRPPSPGFQRQRQRQRRAAGGILHLELLVAVGPDVFQAHQEDTERYVLTNLNIGAELLRDPSLGAQFRVHLVKMVILTEPEGAPNITANLTSSLLSVCGWSQTINPEDDTDPGHADLVLYITRFDLELPDGNRQVRGVTQLGGACSPTWSCLITEDTGFDLGVTIAHEIGHSFGLEHDGAPGSGCGPSGHVMASDGAAPRAGLAWSPCSRRQLLSLLSAGRARCVWDPPRPQPGSAGHPPDAQPGLYYSANEQCRVAFGPKAVACTFAREHLDMCQALSCHTDPLDQSSCSRLLVPLLDGTECGVEKWCSKGRCRSLVELTPIAAVHGRWSSWGPRSPCSRSCGGGVVTRRRQCNNPRPAFGGRACVGADLQAEMCNTQACEKTQLEFMSQQCARTDGQPLRSSPGGASFYHWGAAVPHSQGDALCRHMCRAIGESFIMKRGDSFLDGTRCMPSGPREDGTLSLCVSGSCRTFGCDGRMDSQQVWDRCQVCGGDNSTCSPRKGSFTAGRAREYVTFLTVTPNLTSVYIANHRPLFTHLAVRIGGRYVVAGKMSISPNTTYPSLLEDGRVEYRVALTEDRLPRLEEIRIWGPLQEDADIQVYRRYGEEYGNLTRPDITFTYFQPKPRQAWVWDYKDDDDK
As for B2, the “vWF cleaving activity (SDS-PAGE)” value is recorded as “vWF cleaving activity was clearly recognized from the full-length molecule to W688stop molecule”.

B3: T1135stop (C-terminal deletion variant of ADAMTS-13, FLAG appended) (protein)
chain: PSHFQQSCLQALEPQAVSSYLSPGAPLKGRPPSPGFQRQRQRQRRAAGGILHLELLVAVGPDVFQAHQEDTERYVLTNLNIGAELLRDPSLGAQFRVHLVKMVILTEPEGAPNITANLTSSLLSVCGWSQTINPEDDTDPGHADLVLYITRFDLELPDGNRQVRGVTQLGGACSPTWSCLITEDTGFDLGVTIAHEIGHSFGLEHDGAPGSGCGPSGHVMASDGAAPRAGLAWSPCSRRQLLSLLSAGRARCVWDPPRPQPGSAGHPPDAQPGLYYSANEQCRVAFGPKAVACTFAREHLDMCQALSCHTDPLDQSSCSRLLVPLLDGTECGVEKWCSKGRCRSLVELTPIAAVHGRWSSWGPRSPCSRSCGGGVVTRRRQCNNPRPAFGGRACVGADLQAEMCNTQACEKTQLEFMSQQCARTDGQPLRSSPGGASFYHWGAAVPHSQGDALCRHMCRAIGESFIMKRGDSFLDGTRCMPSGPREDGTLSLCVSGSCRTFGCDGRMDSQQVWDRCQVCGGDNSTCSPRKGSFTAGRAREYVTFLTVTPNLTSVYIANHRPLFTHLAVRIGGRYVVAGKMSISPNTTYPSLLEDGRVEYRVALTEDRLPRLEEIRIWGPLQEDADIQVYRRYGEEYGNLTRPDITFTYFQPKPRQAWVWAAVRGPCSVSCGAGLRWVNYSCLDQARKELVETVQCQGSQQPPAWPEACVLEPCPPYWAVGDFGPCSASCGGGLRERPVRCVEAQGSLLKTLPPARCRAGAQQPAVALETCNPQPCPARWEVSEPSSCTSAGGAGLALENETCVPGADGLEAPVTEGPGSVDEKLPAPEPCVGMSCPPGWGHLDATSAGEKAPSPWGSIRTGAQAAHVWTPAAGSCSVSCGRGLMELRFLCMDSALRVPVQEELCGLASKPGSRREVCQAVPCPARWQYKLAACSVSCGRGVVRRILYCARAHGEDDGEEILLDTQCQGLPRPEPQEACSLEPCPPRWKVMSLGPCSASCGLGTARRSVACVQLDQGQDVEVDEAACAALVRPEASVPCLIADCTYRWHVGTWMECSVSCGDGIQRRRDTCLGPQAQAPVPADFCQHLPKPVTVRGCWAGPCVGQGTDYKDDDDK
B3: the “vWF cleaving activity (SDS-PAGE)” value is “vWF cleaving activity was clearly recognized from the full-length molecule to W688stop molecule”.

B4: Q449stop (C-terminal deletion variant of ADAMTS-13, FLAG appended) (protein)
chain: PSHFQQSCLQALEPQAVSSYLSPGAPLKGRPPSPGFQRQRQRQRRAAGGILHLELLVAVGPDVFQAHQEDTERYVLTNLNIGAELLRDPSLGAQFRVHLVKMVILTEPEGAPNITANLTSSLLSVCGWSQTINPEDDTDPGHADLVLYITRFDLELPDGNRQVRGVTQLGGACSPTWSCLITEDTGFDLGVTIAHEIGHSFGLEHDGAPGSGCGPSGHVMASDGAAPRAGLAWSPCSRRQLLSLLSAGRARCVWDPPRPQPGSAGHPPDAQPGLYYSANEQCRVAFGPKAVACTFAREHLDMCQALSCHTDPLDQSSCSRLLVPLLDGTECGVEKWCSKGRCRSLVELTPIAAVHGRWSSWGPRSPCSRSCGGGVVTRRRQCNNPRPAFGGRACVGADLQAEMCNTQACEKTQLEFMSQQDYKDDDDK
B4: the vWF cleaving activity entry is “secretion into culture supernatant was observed but the enzyme activity was weak or not observed in a molecule consisting of amino acids up to the vicinity of the 449th”.

B5: Full 1427stop (FLAG tagged ADAMTS-13 wild type) (protein)
chain: PSHFQQSCLQALEPQAVSSYLSPGAPLKGRPPSPGFQRQRQRQRRAAGGILHLELLVAVGPDVFQAHQEDTERYVLTNLNIGAELLRDPSLGAQFRVHLVKMVILTEPEGAPNITANLTSSLLSVCGWSQTINPEDDTDPGHADLVLYITRFDLELPDGNRQVRGVTQLGGACSPTWSCLITEDTGFDLGVTIAHEIGHSFGLEHDGAPGSGCGPSGHVMASDGAAPRAGLAWSPCSRRQLLSLLSAGRARCVWDPPRPQPGSAGHPPDAQPGLYYSANEQCRVAFGPKAVACTFAREHLDMCQALSCHTDPLDQSSCSRLLVPLLDGTECGVEKWCSKGRCRSLVELTPIAAVHGRWSSWGPRSPCSRSCGGGVVTRRRQCNNPRPAFGGRACVGADLQAEMCNTQACEKTQLEFMSQQCARTDGQPLRSSPGGASFYHWGAAVPHSQGDALCRHMCRAIGESFIMKRGDSFLDGTRCMPSGPREDGTLSLCVSGSCRTFGCDGRMDSQQVWDRCQVCGGDNSTCSPRKGSFTAGRAREYVTFLTVTPNLTSVYIANHRPLFTHLAVRIGGRYVVAGKMSISPNTTYPSLLEDGRVEYRVALTEDRLPRLEEIRIWGPLQEDADIQVYRRYGEEYGNLTRPDITFTYFQPKPRQAWVWAAVRGPCSVSCGAGLRWVNYSCLDQARKELVETVQCQGSQQPPAWPEACVLEPCPPYWAVGDFGPCSASCGGGLRERPVRCVEAQGSLLKTLPPARCRAGAQQPAVALETCNPQPCPARWEVSEPSSCTSAGGAGLALENETCVPGADGLEAPVTEGPGSVDEKLPAPEPCVGMSCPPGWGHLDATSAGEKAPSPWGSIRTGAQAAHVWTPAAGSCSVSCGRGLMELRFLCMDSALRVPVQEELCGLASKPGSRREVCQAVPCPARWQYKLAACSVSCGRGVVRRILYCARAHGEDDGEEILLDTQCQGLPRPEPQEACSLEPCPPRWKVMSLGPCSASCGLGTARRSVACVQLDQGQDVEVDEAACAALVRPEASVPCLIADCTYRWHVGTWMECSVSCGDGIQRRRDTCLGPQAQAPVPADFCQHLPKPVTVRGCWAGPCVGQGTPSLVPHEEAAAPGRTTATPAGASLEWSQARGLLFSPAPQPRRLLPGPQENSVQSSACGRQHLEPTGTIDMRGPGQADCAVAIGRPLGEVVTLRVLESSLNCSAGDMLLLWGRLTWRKMCRKLLDMTFSSKTNTLVVRQRCGRPGGGVLLRYGSQLAPETFYRECDMQLFGPWGEIVSPSLSPATSNAGGCRLFINVAPHARIAIHALATNMGAGTEGANASYILIRDTHSLRTTAFHGQQVLYWESESSQAEMEFSEGFLKAQASLRGQYWTLQSWVPEMQDPQSWKGKEGTDYKDDDDK
As for B5, the “vWF cleaving activity (SDS-PAGE)” value is “vWF cleaving activity was clearly recognized from the full-length molecule to W688stop molecule”.

B6: W1016stop (C-terminal deletion variant of ADAMTS-13, FLAG appended) (protein)
chain: PSHFQQSCLQALEPQAVSSYLSPGAPLKGRPPSPGFQRQRQRQRRAAGGILHLELLVAVGPDVFQAHQEDTERYVLTNLNIGAELLRDPSLGAQFRVHLVKMVILTEPEGAPNITANLTSSLLSVCGWSQTINPEDDTDPGHADLVLYITRFDLELPDGNRQVRGVTQLGGACSPTWSCLITEDTGFDLGVTIAHEIGHSFGLEHDGAPGSGCGPSGHVMASDGAAPRAGLAWSPCSRRQLLSLLSAGRARCVWDPPRPQPGSAGHPPDAQPGLYYSANEQCRVAFGPKAVACTFAREHLDMCQALSCHTDPLDQSSCSRLLVPLLDGTECGVEKWCSKGRCRSLVELTPIAAVHGRWSSWGPRSPCSRSCGGGVVTRRRQCNNPRPAFGGRACVGADLQAEMCNTQACEKTQLEFMSQQCARTDGQPLRSSPGGASFYHWGAAVPHSQGDALCRHMCRAIGESFIMKRGDSFLDGTRCMPSGPREDGTLSLCVSGSCRTFGCDGRMDSQQVWDRCQVCGGDNSTCSPRKGSFTAGRAREYVTFLTVTPNLTSVYIANHRPLFTHLAVRIGGRYVVAGKMSISPNTTYPSLLEDGRVEYRVALTEDRLPRLEEIRIWGPLQEDADIQVYRRYGEEYGNLTRPDITFTYFQPKPRQAWVWAAVRGPCSVSCGAGLRWVNYSCLDQARKELVETVQCQGSQQPPAWPEACVLEPCPPYWAVGDFGPCSASCGGGLRERPVRCVEAQGSLLKTLPPARCRAGAQQPAVALETCNPQPCPARWEVSEPSSCTSAGGAGLALENETCVPGADGLEAPVTEGPGSVDEKLPAPEPCVGMSCPPGWGHLDATSAGEKAPSPWGSIRTGAQAAHVWTPAAGSCSVSCGRGLMELRFLCMDSALRVPVQEELCGLASKPGSRREVCQAVPCPARWQYKLAACSVSCGRGVVRRILYCARAHGEDDGEEILLDTQCQGLPRPEPQEACSLEPCPPRWDYKDDDDK
Regarding B6, the “vWF cleaving activity (SDS-PAGE)” value was “vWF cleaving activity was clearly recognized from the full-length molecule to W688stop molecule”.
